Measurements: article PMC4928626

Experiments:
[1] = molecular target: aerobactin synthetase IucA from hypervirulent Klebsiella pneumoniae hvKP1 (Klebsiella pneumoniae hvKP1 (hypervirulent pathotype)); test: native gel or EMSA
[2] = molecular target: aerobactin synthetase IucA from hypervirulent Klebsiella pneumoniae hvKP1 (Klebsiella pneumoniae hvKP1 (hypervirulent pathotype)); test: SAXS
[3] = molecular target: aerobactin synthetase IucA from hypervirulent Klebsiella pneumoniae hvKP1 (Klebsiella pneumoniae hvKP1 (hypervirulent pathotype)); test: SEC

Measured: stoichiometry N

aerobactin synthetase IucA from hypervirulent Klebsiella pneumoniae hvKP1 (from UniProt A0ACD7U9R1 1-596) (enzyme)
4: all assays above
